Experimental data: publication PMC5744401

Assays:
Details in all cases: EMSA: 0.3 nM DIG-labeled probe; buffer, salt, pH and temperature as in Zhu et al. 2016 (not given)
[1] = molecular target: T1, His6-AvaR1 (Streptomyces avermitilis) (UniProt Q82H41); experiment: EMSA
T1 sequence: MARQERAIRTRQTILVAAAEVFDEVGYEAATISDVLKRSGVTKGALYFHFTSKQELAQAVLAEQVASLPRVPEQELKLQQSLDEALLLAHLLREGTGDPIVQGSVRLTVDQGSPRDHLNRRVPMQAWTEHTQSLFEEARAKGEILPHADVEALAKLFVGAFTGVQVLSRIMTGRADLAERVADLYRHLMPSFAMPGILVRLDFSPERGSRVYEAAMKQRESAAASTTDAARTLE

[2] = tested on: His6-AvaR1 (Streptomyces avermitilis); experiment: competition EMSA
[3] = molecular target: T2, GST-AvaR2 (Streptomyces avermitilis) (UniProt Q82H44); experiment: EMSA
T2 sequence: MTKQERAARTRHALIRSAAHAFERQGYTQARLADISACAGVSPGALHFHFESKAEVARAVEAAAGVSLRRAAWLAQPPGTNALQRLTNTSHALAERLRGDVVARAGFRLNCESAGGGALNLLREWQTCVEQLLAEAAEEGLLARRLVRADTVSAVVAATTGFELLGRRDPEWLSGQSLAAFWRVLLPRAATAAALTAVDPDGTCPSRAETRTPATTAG

[4] = molecular target: T3, His6-AvaR1;GST-AvaR2 (Streptomyces avermitilis;Streptomyces avermitilis) (UniProt Q82H41+Q82H44); experiment: EMSA
T3 sequence 1: T1 sequence
T3 sequence 2: T2 sequence

[5] = molecular target: T1, His6-AvaR1 (Streptomyces avermitilis); experiment: competition EMSA
[6] = molecular target: T4, His6-AvaR2 (Streptomyces avermitilis) (UniProt Q82H44); experiment: EMSA
T4 sequence: T2 sequence

[7] = molecular target: T1, His6-AvaR1 (Streptomyces avermitilis); experiment: DNase I footprinting

Row | Substance | binding [1] | further results
1 | GCTCTTCGTGCTCACCGTCTTCGTCGCGTACGCGTACGTATGGCGGCGCGGCGGTCTGGAATGGGACTGAGGGGCCTTTAACGACATGGGACTCGAAGAAAAGCTGCCGAGCGGATTCCTGCTGACGAC (double strand) [nuoB1p] | binds | 
2 | avaR1p |  | binding signal (affinity rank of 5 (1 = strongest)) [2]: 5
3 | GGGTAGTGTCAAGGTCGCTGACTTTGATGATTAACTGATGATCGTGGGATTCTGAGGTGGTGTTCGCGAGGGTGAAGGAGTTCCTTCCTGGAGACATCCGTGCCCCGGATGGCGGTCCACAATTCACGAGTGGGATGCGCAGTGGGTCGCGTGCTGCAACACCGAATGGAATACCGGGTGACCGGTATGTATGGC (double strand) [aveRp2] | binds | binding [3]: binds; binding [4]: binds
4 | aveRp |  | binding signal (affinity rank of 5 (1 = strongest)) [2]: 3
5 | TTGTGCCCTGTGTGTGCGCCATGGGCATACCGTCCGGGCGGAATGCCGGGTTCCGGCATCGAACGTCGTGCGATTCGGCAGTTCGAGCGATACCGGATGGTTTCGCTTCTGTTCGATTGCGGGGTGTGGTGTAGGCCAGTACGCGAAACTCGCCGGAAAAGGGGCACCCGCCGCCCGTAGGCTGGGAGGCAT (double strand) [3560p] | binds | 
6 | ATCCACGCTTCTCGCTCCGCCCAGTGTACGGCGCCGCGCGGACAGCGGCCGACCGGTTTTCCGGGGCCCGCGCGGAAGGCGGCAGGGGGGCCGGTACGGGCCGCGGACTGACCCGAATGGCGA (double strand) [ileSp] | no binding | 
7 | avaR3p |  | binding signal (affinity rank of 5 (1 = strongest)) [2]: 1
8 | GCGGAAGGCGGCTGACCAGAGGGCCCTGCAAGAAACCAGCATAGCGGTTTGTTTGTGGCGCCCGTCACCACTTCGCCGACGCGGTACCCCCGGAGGCCAGGCACCGGTCACTGCCGCCGCCCGCGCTGCCCGCTGCCGCCGCCGAGCCGTACCGCGCGGCTCGGGCGTCGCGCATGCCGTCAGGCCCCCGGCACCTCCCTG (double strand) [avaR2p] | binds | binding signal (affinity rank of 5 (1 = strongest)) [5]: 2
9 | CTCGGGCGTGATCCGACTGCGGCGCACCGTTGCGGTCTCAGTCATCGCACTCGCCTCTCCTGCTTCGAACGACACGGTTTCCGGTTGCGTACGTCTACCCGTACGTCTTCCTCGTACCTTCCTGAAGATACCCCGAGAGCGAGCGAAACGAAACCGTTTCGTACGTGTCGTGGGTCACGCACATGTTTTCACAAGTTGCCGGGGCCCGTCGCGCGGAAAAGCATGGGTTAGGTGAACCCCGAGTCCGA (double strand) [aveTp] | binds | binding [6]: binds
10 | GCCACACGCACCCTCCGCACCAGCCCGACCAGCGGGACACCGTCCCGACCAGTGGGACACCGTCCGGATCGCGGGACACCGTCCCGACCAGCGGGAAAAGACCAAGCGGTTCGCACCCTAACAGCGACGATCCTCCACTCCACCGCCGAAGACAGGCCCGGTCCTGACCGGGACGATAAAACCAGCTGAACGGTTTTTCAATGCTCCCCTCGCCCTCTCACAAACCACTCAAAAACACATATCTCACCCCCAACTCCC (double strand) [avaR1p] | binds | binding signal (affinity rank of 5 (1 = strongest)) [5]: 5
11 | GTGCTGCAACACCGAATGGAATACCGGGTGACCGGTATGTATGGCGGTGCGGTGACCGCGGAAACGGCTCGGGCGGATTGACCGCCCGAGCCGGAGGAGAAGGCCATCGCCGCACCCGCGAGCAAGGGTCCAGAGGGACGGCGGCGCGAAGGCGGCCTGGCCTATGGGGAGTTCGGAGGACCAGGCGTCA (double strand) [aveRp] | binds | binding signal (affinity rank of 5 (1 = strongest)) [5]: 3
12 | CCCTCGACCGGATTGTGGGAGCATCGTGCCATTCCAAGTGGCCGCTATGTGACCGAGTGCCCCCGATCGGCCCCAGATGGCGGGTTAAGGCTAATTAAGGAAACCCCCTGACGCCCCCTGACGGGGTCTGCTCACCCGCACGGCATGATGGCCCCCATGCGTGCGGTGGTGCAGAGGGTGGACGGCGCGAGCGTCGTCGTGGAAGGCGAGAACGGGCCGGAGACGGTCGGTGAGATCAACGGCGAGG (double strand) [amfCp] | binds | 
13 | GCCACACGCACCCTCCGCACCAGCCCGACCAGCGGGACACCGTCCCGACCAGTGGGACACCGTCCGGATCGCGGGACACCGTCCCGACCAGCGGGAAAAGACCAAGCGGTTCGCACCCTAACAGCGACGATCCTCCACTCCACCGCCGAAGACAGGCCCGGTCCTGACCGGGACGATAAAACCAGCTGAACGGTTTTTCAATGCTCCCCTCGCCCTCTCACAAACCACTCAAAAACACATATCTCACCCCCAACTCCC (double strand) [avaR1 footprint probe] |  | binding [7]: binds
14 | TCAACCACCGTCATGTAGGGCGTACGCCCTTGCTGTACGGACCCGGTGTGTTGACGCCCGGTGCCGCGAGCGCACCCCCGCCCGCTCACGGCACCGGACTTCTCGGTGTTCCGGATGACGTCGTGCAGACGCGTGACAACTGCGCCAGTGCTGGTGCTGTGCAGCGTGTTCATCTCGCGCCCCCCGTCGTGGAGTCCGGTATCCCTGCGGTCTTGCCCTGCTGTCCTGCGGTGGTGCTGCCTTGCTTGTGTCGAAAAGCTTGCC (double strand) [probe 1] | no binding | 
15 | avaR2p |  | binding signal (affinity rank of 5 (1 = strongest)) [2]: 2
16 | TGCGGTGACCCCCATCTCGATCAGTTCGGTGGGGTGAAACCGCGTGAGCCGGTTGTCGTCCAGGCTCTGGGGCCCGGTGTCCGCGAGGGCGGGGAACGCCCTGAGGGAGGGGTAGGCATAAGGAAGGTACTCGGCGAGGCCGCTGCTGTGGTTGATCAACATCCGGACCGTGATCGCGTCACCGCGTTCTCCGGGAACCAGCCTCGGAAGGTACCGGCCGATCGGAGTGTCAAGACCGATCAGGTCACCGACGAGGAGTGCAACGC (double strand) [2051p] | no binding | 
17 | GAGCTTCTCCCTGGCTTGGGACGGGCTGACGTGAACCACGGGACCCGAGAAGGGCTGAGGAAGGGCTGGAGAGCTGCGGAAGAGCTGCGGAGGAGCTGCGGAAGAGCTGCGGAAGAGCTGGAGGTCAAAGATACGTACTAGACGGTTTTGTCTTCAAGTCCCTCTTGCGGTCAAGGGTCATCCCTTACAAGGGAGTTGGGGGTGAGATATGTGTTTTTGAGTGGTTTGTGAGAGGGCG (double strand) [acop] | binds | binding signal (affinity rank of 5 (1 = strongest)) [5]: 4
18 | GAACTGGGTGACGAGGAGCTTCTCGCGAAGCTTCGCGAAGCCAAGGAAGAGCTGTTCAACCTCCGCTTCCAGGCGGCGACCGGTCAGCTCGAGAACCACGGTCGGCTCAAGGCCGTCCGCAAGGACATCGCGCGGATCTACACCCTGATGCGTGAGCGCGAGCTGGGCATCGAGACGGTGGAGAGCGCCTGATGAGCGAGAGCAACGTGACTGAGACCAACGAGCAGCGCGGTTTCCGCAAGACCCGTGAGGGTCTGGTCGTCAGCGACAAGATGGACAA (double strand) [rpsQp] | binds | 
19 | ACTGATGCGCGAGAAAACCGCACAAGCGGTTTGTTAAAGTTGCTGGACCCCCATCAGCAACGGAGCGCCCGATGGTCAAGCAGGTCAGACAGGAACGCGCGATCCGCACGCGCAACGCCTTGATCGAGTCC (double strand) [avaR3p] | binds | binding signal (affinity rank of 5 (1 = strongest)) [5]: 1
20 | GCCCTCGTCCCAGTAGAAGACGGGTCGCCGGGTTCCTGGGCCCGTGGCCCGCATGCGCAGCTCGACCTGGGTGATCACCTCGGTCTGCGTGGTCTCGACTCATGACCGCGCCGGTCAGCGCCTCCACAAGTCGTCCAAGTTTCAGCCGGTGGCAGACATTCCGTGA (double strand) [wbpAp] | no binding | 
21 | TTCAACTGACCGTCCCGCACGTAGAGTTCTGGAGTCACCCGCACATGACCGTACGCAAGAACCAGGCGACCCTGACGGCCGACGAGAAGCGGCGCTTCGTCGACGCGCTCGTGGCGCTCAAGCGCAGTGGCCGCTACGACGAGTTCGTCACGACCCACAACGCCTTCATCATGGGCGACACCGACAGCGGCGAACGCACGGGCCATCGTTCGCCTTCCT (double strand) [melC2p] | no binding | 
22 | CCGCTGGAGTCTGAGAAGCCATGGAAGCATTCACCACGCACACCGGCCGGGCCGTCCCGCTGCGCCGCAGCAACGTCGACACCGACCAGATCATCCCCGCCCACTGGCTCAAGAAGGTCACCAGGGACGGTTTCGAGGACGGGCTGTTCGAGGCCTGGCGCAAGGACGAGTCCTTCATCCTCAACCG (double strand) [leuDp] | binds | 
